Publication doi:10.1101/2024.03.08.584184

Target: cGAS (Homo sapiens, UniProt Q8N884 1-522)
Assay: EMSA

Sequence of cGAS (Q8N884 whole entry): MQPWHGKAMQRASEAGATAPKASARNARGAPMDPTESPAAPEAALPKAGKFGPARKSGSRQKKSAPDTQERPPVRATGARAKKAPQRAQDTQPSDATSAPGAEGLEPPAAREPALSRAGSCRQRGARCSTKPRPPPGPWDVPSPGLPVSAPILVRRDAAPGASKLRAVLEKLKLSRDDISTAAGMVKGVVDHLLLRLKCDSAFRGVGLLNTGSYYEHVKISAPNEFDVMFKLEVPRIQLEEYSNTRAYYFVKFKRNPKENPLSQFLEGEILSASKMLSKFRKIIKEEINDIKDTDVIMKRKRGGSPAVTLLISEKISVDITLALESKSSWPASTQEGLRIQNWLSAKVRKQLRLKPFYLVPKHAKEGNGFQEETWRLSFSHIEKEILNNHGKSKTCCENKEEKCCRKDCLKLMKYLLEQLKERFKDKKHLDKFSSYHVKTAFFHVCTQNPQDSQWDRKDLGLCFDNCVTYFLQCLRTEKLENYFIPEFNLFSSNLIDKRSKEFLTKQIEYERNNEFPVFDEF

B1: 70bp Oligo 2 (dsDNA)
DNA 1: GGCAAGCAGGCCTTCTCATGCGTATATCAACGTGTCCGTTTGAGATATCAGTGTTCTCTTTCCCGGTTAA
DNA 2: TTAACCGGGAAAGAGAACACTGATATCTCAAACGGACACGTTGATATACGCATGAGAAGGCCTGCTTGCC
- binding result: binds
